For test [1], the target named is purified human von Willebrand factor (vWF) (human) (UniProt P04275). Kind of test: cell-based or functional assay.
The target in test [2] is His tagged A1 domain of human von Willebrand factor (residues 499-729), expressed in E. coli (human) (UniProt P04275). Kind of test: DELFIA competitive binding format (time-resolved fluorescence): Eu-NMC-4 chimera at 100 pM on wells coated with His-hA1, unlabelled AJW200 varied; EC50 of the enhancement of Eu-NMC-4 binding.
For test [3] the target is unchanged. Kind of test: competition with 100 pM Eu-NMC-4 chimera on plate-coated human His-A1, DELFIA, Cheng-Prusoff.
The target is the same in test [4]. Kind of test: calculated from koff, DELFIA kinetics on plate-coated His-A1, 37 °C.
Test [5] shares this target. Kind of test: equilibrium binding (Scatchard), Eu-labelled antibody on direct-coated His-A1, DELFIA, 37 °C, n = 10.
For test [6] the target is unchanged. In words: homologous competition with 100 pM Eu-NMC-4 chimera on plate-coated human His-A1, DELFIA, Cheng-Prusoff.
For test [7] the target is unchanged. Kind of test: ratio of the kinetic constants (row printed as 'kon/koff'), DELFIA, 37 °C.
Test [8] shares this target. In words: DELFIA competitive binding (time-resolved fluorescence): Eu-NMC-4 chimera at 100 pM on wells coated with His-hA1, unlabelled competitor antibody varied (homologous competition).
Test [9] shares this target. Kind of test: homologous competition with Eu-NMC-4 chimera on plate-coated His-A1, DELFIA, Cheng-Prusoff, n = 4.
For test [10], the target named is T1, purified human von Willebrand factor (vWF) (human, UniProt P04275 764-2813). Kind of test: cell-based or functional assay.
Test [11] concerns the target T1, purified human von Willebrand factor …. In words: cell-based or functional assay. The source holds these as a separate data set.
Test [12] shares this target. Kind of test: cell-based or functional assay. This is another data set of the same source.
Test [13] has the same target. In words: cell-based or functional assay. The source holds these as a separate data set.
The target in test [14] is T2, His tagged A1 domain of rat von Willebrand factor, expressed in E. coli (rat, UniProt Q62935 13-256).
T2 construct: domain: A1 domain; also called His-A1 (rat); His-rA1; not shown: His tag from the pETDuet-1 vector
In words: calculated from koff, DELFIA kinetics on plate-coated His-A1, 37 °C.

In test [15] the target is T2, His tagged A1 domain of rat von …. Kind of test: homologous competition with Eu-NMC-4 chimera on plate-coated rat His-A1, DELFIA, Cheng-Prusoff, n = 3.
Procedure: Wells of Immulon-4 plates are coated with His-A1 domain of vWF from human (e.g., 25 ng in 100 μl/well in 30 mM Tris, pH 7.4 and 300 mM NaCl or divalent cation-free PBS) or rat (e.g., 50 ng/well) by incubating overnight at 4° C. The plates are washed three times with Wash Buffer (e.g., 50 mM HEPES, pH 7.4, 150 mM NaCl, 0.5% Tween-20), blocked with 300 μl/well Blocking Buffer (e.g., Wash Buffer containing 3.0 mg/ml IgG-free BSA and 0.1% sodium azide) for 1 hour at room temperature and washed 5 times with Wash Buffer before use.
Competitive binding studies may be performed to determine Ki values (e.g., a measure of relative affinity for antigen). […] The final concentration of europium-labeled antibody is 100 pM.
Test [16] shares this target. In words: ratio of the kinetic constants (row printed as 'kon/koff'), DELFIA, 37 °C.
Test [17] has the same target. In words: equilibrium binding (Scatchard), Eu-labelled antibody on direct-coated His-A1, DELFIA, 37 °C, n = 5.
Procedure: Equilibrium binding assays are performed as follows. Eu-antibody is pre-diluted into Binding Buffer (e.g., Wash buffer containing 100 μg/ml IgG-free BSA and 0.1% sodium azide) and applied to wells (e.g., 10 μl/well) of a 96-well plate and the plates sealed with SEALPLATE film. The plates are shaken (e.g., Titer Plate Shaker speed setting of 4 for ≧15 sec or 60 sec at RT), placed into nalgene boxes containing wet paper towels, and incubated in the closed boxes for 2 hours at 37° C. For the measurement of free label, supernatant samples (4.0 μl) are transferred from the wells containing binding mixtures into a parallel set of wells containing DELFIA Enhancement Solution (100 μl/well). To assess bound antibody, the A1-coated wells with the remaining binding mixtures are washed five times with Wash Buffer, tapped dry onto paper towels and DELFIA Enhancement Solution (100 μl/well) added to the empty wells for the measurement of bound label. For assay calibration, DELFIA Enhancement Solution (100 μl/well) is added to unused wells and Europium Standard (1.0 μl/well) is added. The plates are shaken (e.g., Titer Plate Shaker speed setting of 5 for 10 minutes at room temperature), and time-resolved fluorescent (TRF) intensities are read using a Victor2 multi-label plate reader (Perkin-Elmer Wallac, Boston, Mass.). […]
Test [18] has the same target. Kind of test: DELFIA association kinetics, Eu-labelled antibody on plate-coated His-A1, 37 °C.

For the molecule “AJW200 reference antibody (anti-vWF A1 domain, cloned with human IgG1(dm) constant region)”, the EC50, ristocetin-induced platelet agglutination assay in [1] was 0.27 nM. Moreover, in test [2], the EC50 (read off the curve) turned out to be 0.2 nM.

As to “NMC-4 monoclonal antibody (murine anti-vWF antibody, IgG1κ)”, the Ki in test [3] was determined as 0.6 nM.

Turning to “NMC-4-human Fc chimera (NMC-4 variable regions on human IgG1(dm) and human kappa constant regions) (antibody)”, the Dissociation half-life in test [4] was 44 min. Also, the Kd in test [5] was 0.316 nM; in test [7], 0.39 nM. Besides, the inhibition constant Ki was 0.28 nM in [6] and 0.275 nM in test [9]. Also, the IC50 (read off the curve) in [8] worked out at 0.6 nM.

B1: humanized NMC-4 variant H14, L11 (IgG1) (antibody, V domains shown)
VH: QVQLQESGPGLVKPSETLSLTCTVSGGSISDYGWDWIRQPPGKGLEWIGMIWGDGSTDYNPSLKSRVTISVDTSKNQFSLKLSSVTAADTAVYYCARDPADYGNYDYALDYWGQGTLVTVSS
VL: DIQMTQSPSSLSASVGDRVTITCQASQDISNYLNWYQQKPGKAPKLLIYDASNLETGVPSRFSGSGSGTDFTLTFSSLQPEDFATYYCQQYEKLPWTFGQGTKVEIK
For B1, in test [10], the “fold lower activity compared to chimera, platelet agglutination assay” value came out at 10 fold. Also, in test [11], the “EC50 (nM), platelet agglutination assay” value came out at 1.63 nM.

B2: NMC-4 monoclonal antibody (murine anti-vWF antibody, IgG1κ) (antibody, V domains shown)
VH: QVQLKESGPGLVAPSQSLSITCTVSGFSLTDYGVDWVRQPPGKGLEWLGMIWGDGSTDYNSALKSRLSITKDNSKSQVFLKMNSLQTDDTARYYCVRDPADYGNYDYALDYWGQGTSVTVSS
VL: DIQMTQSPSSLSASLGDRVTISCSASQDINKYLNWYQQKPDGAVKLLIFYTSSLHSGVPSRFSGSGSGTDYSLTISNLEPEDIATYYCQQYEKLPWTFGGGTKLEVKR
In the case of B2, in [10], the “EC50, ristocetin-induced platelet agglutination assay” value is 0.17 nM.

B3: humanized NMC-4 variant H8, L5 (IgG1) (antibody, V domains shown)
VH: QVQLQESGPGLVKPSETLSLTCTVSGFSLTDYGVDWIRQPPGKGLEWIGMIWGDGSTDYNSALKSRLTISKDNSKNQFSLKLSSVTAADTAVYYCVRDPADYGNYDYALDYWGQGTSLTVSS
VL: DIQMTQSPSSLSASVGDRVTITCSASQDINKYLNWYQQKPGKAVKLLIFYTSSLHSGVPSRFSGSGSGTDYTLTISSLQPEDIATYYCQQYEKLPWTFGQGTKVEIK
With B3, in test [10], the “fold change of EC50 against the other variants” value turned out to be 1.5 fold. Further, the “EC50” value in test [12] stood at 0.28 nM.

B4: humanized NMC-4 variant H9, L9 (CDR-grafted), IgG1 (antibody, V domains shown)
VH: QVQLQESGPGLVKPSETLSLTCTVSGFSLTDYGVDWIRQPPGKGLEWIGMIWGDGSTDYNSALKSRVTISVDTSKNQFSLKLSSVTAADTAVYYCARDPADYGNYDYALDYWGQGTLVTVSS
VL: DIQMTQSPSSLSASVGDRVTITCSASQDINKYLNWYQQKPGKAPKLLIYYTSSLHSGVPSRFSGSGSGTDFTLTISSLQPEDFATYYCQQYEKLPWTFGQGTKVEIK
B4: the “EC50 (nM), platelet agglutination assay” value in test [11] came out at 0.12 nM. The “EC50” value in [12] amounted to 0.12 nM. For the same molecule, in [13], the “Platelet agglutination EC50, single experiment” value came out at 1.3 nM and the “Platelet agglutination EC50 mean value (from 2 independent expts.)” value was 1.3 nM.

B5: NMC-4-human Fc chimera (NMC-4 variable regions on human IgG1(dm) and human kappa constant regions) (antibody, V domains shown)
VH: QVQLKESGPGLVAPSQSLSITCTVSGFSLTDYGVDWVRQPPGKGLEWLGMIWGDGSTDYNSALKSRLSITKDNSKSQVFLKMNSLQTDDTARYYCVRDPADYGNYDYALDYWGQGTSVTVSS
VL: DIQMTQSPSSLSASLGDRVTISCSASQDINKYLNWYQQKPDGAVKLLIFYTSSLHSGVPSRFSGSGSGTDYSLTISNLEPEDIATYYCQQYEKLPWTFGGGTKLEVK
notes: Heavy constant region is human IgG1 with L235E, E318A, K320A, K332A (IgG1(dm)); also called NMC-4 chimera; NMC4 chimera
Consider B5, for which the Dissociation half-life in test [14] is 69 min. The Ki in [15] worked out at 0.297 nM. For the same molecule, the results for the Kd in test [16] and in [17] were 0.7 nM and 0.276 nM, respectively. The kon in test [18] worked out at 233000 M⁻¹ s⁻¹.

These data come from patent publication US20090232804A1 (GLENMARK PHARMACEUTICALS S A, published 2009).
